According to article PMC6854463:

Target: MPER-TM2 (gp41 residues 630-711, containing the complete TM region) (HIV-1)
Test: not stated; MPER-TM2 solubilized in a buffer containing β-D-octyl glucoside (β-OG); oligomeric state (Figure S5B)

“MPER-TM2 (gp41 residues 630-711, containing the complete TM region) (domain or fragment)” gave a stoichiometry N of 3.
